For assay [1], the target named is purified full length LFA-1 (lymphocyte function–associated antigen 1) (human (endogenous in JY)) (UniProt P20701). The assay can be described thus: adhesion in a parallel plate flow cell.
Assay [2] concerns the target GPI-anchored form of the LFA-1 I domain (I-GPI), stably expressed on baby hamster kidney cells (UniProt P20701). As to the kind of experiment: radioligand binding.

Experimental findings from PMC2199009 are described below.

Chain of UniProt P20701 (P20701 26-1170, chain 1 of 2): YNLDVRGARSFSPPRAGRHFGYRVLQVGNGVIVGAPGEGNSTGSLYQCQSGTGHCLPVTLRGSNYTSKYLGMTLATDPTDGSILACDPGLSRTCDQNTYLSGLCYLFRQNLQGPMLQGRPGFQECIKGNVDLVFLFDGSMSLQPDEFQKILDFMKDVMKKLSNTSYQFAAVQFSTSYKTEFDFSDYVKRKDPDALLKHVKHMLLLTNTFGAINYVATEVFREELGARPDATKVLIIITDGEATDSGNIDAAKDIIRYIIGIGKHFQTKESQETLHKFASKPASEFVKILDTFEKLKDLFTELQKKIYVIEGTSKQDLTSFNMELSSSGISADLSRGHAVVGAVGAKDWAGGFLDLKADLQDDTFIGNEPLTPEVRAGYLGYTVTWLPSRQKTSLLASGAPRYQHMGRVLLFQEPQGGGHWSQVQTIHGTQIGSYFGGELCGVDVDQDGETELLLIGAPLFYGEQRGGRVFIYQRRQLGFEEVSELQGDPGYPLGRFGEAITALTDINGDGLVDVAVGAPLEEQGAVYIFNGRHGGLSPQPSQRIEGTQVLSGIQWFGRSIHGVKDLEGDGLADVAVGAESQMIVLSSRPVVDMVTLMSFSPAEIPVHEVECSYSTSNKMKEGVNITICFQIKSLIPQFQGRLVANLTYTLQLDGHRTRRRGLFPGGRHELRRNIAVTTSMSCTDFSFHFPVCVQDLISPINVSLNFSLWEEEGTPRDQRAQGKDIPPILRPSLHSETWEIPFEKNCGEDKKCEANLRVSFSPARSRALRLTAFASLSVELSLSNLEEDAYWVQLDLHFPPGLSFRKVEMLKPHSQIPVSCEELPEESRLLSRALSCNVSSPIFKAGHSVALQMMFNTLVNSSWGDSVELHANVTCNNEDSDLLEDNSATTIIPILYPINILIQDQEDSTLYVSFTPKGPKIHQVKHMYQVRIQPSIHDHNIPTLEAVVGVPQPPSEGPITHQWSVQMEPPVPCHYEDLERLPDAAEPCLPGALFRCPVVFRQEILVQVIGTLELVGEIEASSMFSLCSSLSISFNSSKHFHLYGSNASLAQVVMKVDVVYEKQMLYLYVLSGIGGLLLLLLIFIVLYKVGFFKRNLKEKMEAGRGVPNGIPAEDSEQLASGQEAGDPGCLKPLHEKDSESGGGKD
Chain of UniProt P20701 (P05107 23-769, chain 2 of 2, further chain): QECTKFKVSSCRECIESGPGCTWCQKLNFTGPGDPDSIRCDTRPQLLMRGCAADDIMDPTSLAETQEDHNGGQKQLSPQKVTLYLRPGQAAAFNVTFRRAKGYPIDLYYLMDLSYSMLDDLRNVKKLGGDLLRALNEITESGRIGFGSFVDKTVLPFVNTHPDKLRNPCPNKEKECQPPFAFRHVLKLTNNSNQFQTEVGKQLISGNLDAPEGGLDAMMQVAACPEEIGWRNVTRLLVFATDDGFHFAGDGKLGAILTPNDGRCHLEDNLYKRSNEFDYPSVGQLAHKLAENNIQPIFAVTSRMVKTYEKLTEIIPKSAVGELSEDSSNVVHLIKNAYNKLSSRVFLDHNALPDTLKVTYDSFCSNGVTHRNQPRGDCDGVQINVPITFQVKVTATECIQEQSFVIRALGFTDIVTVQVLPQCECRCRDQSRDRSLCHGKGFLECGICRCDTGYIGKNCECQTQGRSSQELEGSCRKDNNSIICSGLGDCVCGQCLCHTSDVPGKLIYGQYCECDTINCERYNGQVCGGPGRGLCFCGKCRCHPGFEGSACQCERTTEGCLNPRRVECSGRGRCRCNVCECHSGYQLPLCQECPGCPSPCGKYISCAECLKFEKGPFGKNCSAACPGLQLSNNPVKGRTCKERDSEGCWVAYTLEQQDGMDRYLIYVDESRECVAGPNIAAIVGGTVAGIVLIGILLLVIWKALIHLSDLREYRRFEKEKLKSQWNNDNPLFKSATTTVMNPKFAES

With “ICAM-1 GPI on transfected baby hamster kidney cells (domain or fragment)”, in assay [1], the percent cells free was found to be 73%, the percent cells rolling is 0% and the percent cells stable was 26%.
The IC50 is the point on the concentration scale where inhibition reaches its midpoint. The substance “soluble ICAM-1 (sICAM-1) (domain or fragment)” came in with an IC50 in assay [2] of 150 µM.
